Data on 6 molecules can be found in paper PMC6588284 (Biochemistry, 2019).

The target of data set [1] is KvAP-C247S (Aeropyrum pernix). The data set is described as follows: cross-linking.
In data set [2] the target is KvAPΔCTD+Lys (Aeropyrum pernix). The data set is described as follows: cross-linking.
In data set [3] the target is SUMO CTD fusion with the native C247 residue (Aeropyrum pernix). Nature of the data set: cross-linking.
The target of data set [4] is SUMO-GCN4 fusion protein (Aeropyrum pernix | not stated). The data set is described as follows: SEC.
Data set [5] shares this target. Nature of the data set: cross-linking.
Data set [6] concerns the target KvAP-C247S (Aeropyrum pernix). Nature of the data set: cross-linking. The source holds these as a separate data set.
The data set “SEC” concerns the molecule itself. Nature of the data set: SEC. For orientation: Size exclusion chromatography separates by hydrodynamic size, large species first.

In data set [1], KvAP-C247S (natural protein) displayed a stoichiometry N of 4.
With KvAPΔCTD+Lys (domain or fragment), in data set [2], the percent cross-linked (tetramer) turned out to be 100%, the percent tetramer at 2 hours turned out to be 4%, the stoichiometry N is 4 and the tetramer yield relative to the full length protein is 0.5.
With “SUMO CTD fusion with the native C247 residue (domain or fragment)”, the stoichiometry N in data set [3] was 2.
As for SUMO-GCN4 fusion protein, the stoichiometry N in data set [4] and in data set [5] was 4 each time.

B1: S6-CTD peptide (peptide)
peptide: CVTATTVGYGDVVPATPIGKVIGIAVMLTGISALTLLIGTVSNMFQKILVGEPEPSSSPAKLAEMVSSMSEEEFEEFVRTLKNLRRLENSMKGS
Consider B1, for which, in data set [6], the percent decrease in the KvAP tetramer yield came out at 60%.
For LVGEPEPSSSPAKLAEMVSSMSEEEFEEFVRTLKNLRRLENSMK (domain or fragment, Aeropyrum pernix) [SUMO-CTD fusion protein], the “stoichiometry N” value in “SEC” was 2.

As a reminder, the stoichiometry N is the number of molecules, sites or subunits per partner or assembly.
